Laboratory results as given in article PMC4709261, “Guanylate cyclase 1 relies on rhodopsin for intracellular stability and ciliary trafficking” (eLife, 2015).

Biological target: T1, retinal guanylate cyclase 1 (mouse (endogenous in retina), UniProt P52785 55-1108)
T1 construct: retinal guanylate cyclase 1 (GC-1), mouse, endogenous in the retina; Endogenous protein precipitated by the anti-GC-1 antibody 1S4 and detected by Western blotting; also called GC-1; RetGC1
T1 sequence (looked up): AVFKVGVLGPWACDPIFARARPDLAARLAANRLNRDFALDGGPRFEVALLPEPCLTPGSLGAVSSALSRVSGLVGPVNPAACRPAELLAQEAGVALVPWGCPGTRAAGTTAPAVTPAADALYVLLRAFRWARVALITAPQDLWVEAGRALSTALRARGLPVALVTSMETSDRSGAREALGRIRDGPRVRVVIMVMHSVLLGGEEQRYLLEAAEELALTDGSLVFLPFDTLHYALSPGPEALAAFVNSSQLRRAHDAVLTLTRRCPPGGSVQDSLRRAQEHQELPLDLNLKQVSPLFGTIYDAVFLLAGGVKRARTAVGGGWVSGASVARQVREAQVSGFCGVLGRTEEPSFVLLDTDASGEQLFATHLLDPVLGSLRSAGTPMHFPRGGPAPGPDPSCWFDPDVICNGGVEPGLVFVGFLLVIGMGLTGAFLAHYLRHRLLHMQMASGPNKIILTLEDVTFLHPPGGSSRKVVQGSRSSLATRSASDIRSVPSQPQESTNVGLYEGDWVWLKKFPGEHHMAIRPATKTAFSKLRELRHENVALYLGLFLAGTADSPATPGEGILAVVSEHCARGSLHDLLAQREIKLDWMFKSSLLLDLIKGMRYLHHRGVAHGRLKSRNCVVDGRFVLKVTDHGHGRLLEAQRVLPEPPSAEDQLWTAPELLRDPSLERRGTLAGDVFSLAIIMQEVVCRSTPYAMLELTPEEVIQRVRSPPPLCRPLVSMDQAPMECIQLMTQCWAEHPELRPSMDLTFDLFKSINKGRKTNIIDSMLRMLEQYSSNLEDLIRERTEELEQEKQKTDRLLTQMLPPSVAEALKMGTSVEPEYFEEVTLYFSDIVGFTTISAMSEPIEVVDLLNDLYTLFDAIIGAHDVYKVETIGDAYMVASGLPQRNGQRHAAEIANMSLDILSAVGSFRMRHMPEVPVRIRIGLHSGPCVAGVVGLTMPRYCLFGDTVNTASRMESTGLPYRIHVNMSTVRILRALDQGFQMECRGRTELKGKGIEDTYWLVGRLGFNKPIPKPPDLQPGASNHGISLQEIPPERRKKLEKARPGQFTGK
Experiment: co-IP; Rho+/- mouse retinal lysate; anti-GC-1 antibody 1S4 (0.2 μg), minimal amount (5 μl) of protein A/G magnetic beads; eluate analysed by Western blotting for GC-1 and rhodopsin; control: non-immune mouse IgG
Details: partners not purified

fold of rhodopsin precipitation with anti-GC-1 antibody over non-specific background with non-immune IgG: 6.5 fold
B1: rhodopsin (receptor, mouse (endogenous in retina), UniProt P15409 1-348, looked up)
chain: MNGTEGPNFYVPFSNVTGVVRSPFEQPQYYLAEPWQFSMLAAYMFLLIVLGFPINFLTLYVTVQHKKLRTPLNYILLNLAVADLFMVFGGFTTTLYTSLHGYFVFGPTGCNLEGFFATLGGEIALWSLVVLAIERYVVVCKPMSNFRFGENHAIMGVVFTWIMALACAAPPLVGWSRYIPEGMQCSCGIDYYTLKPEVNNESFVIYMFVVHFTIPMIVIFFCYGQLVFTVKEAAAQQQESATTQKAEKEVTRMVIIMVIFFLICWLPYASVAFYIFTHQGSNFGPIFMTLPAFFAKSSSIYNPVIYIMLNKQFRNCMLTTLCCGKNPLGDDDASATASKTETSQVAPA
notes: rhodopsin, mouse, endogenous in the retina; Endogenous protein precipitated by, or detected with, the anti-rhodopsin antibody 1D4
